Data reported in patent publication US6855515B1, “Autoantigenic fragments, methods and assays” (Merck & Co., Inc., priority 1998, dated 2005).
Entries after “also recorded” stand apart in the source; their conditions may differ.

Key:
[1] = target: T1, granzyme B (Homo sapiens, UniProt P10144); assay: In vitro cleavage of substrates by purified granzyme B, kcat/Km from densitometry; type: biochemical; conditions: in the presence of 10 μg/ml DNA
T1 construct: Some of these preparations were used for the further purification of granzyme B (Tschopp, 1994); endogenous in cells; host or cells: YT cells (human NK cell line), cytoplasmic granules
T1 sequence (P10144 21-247): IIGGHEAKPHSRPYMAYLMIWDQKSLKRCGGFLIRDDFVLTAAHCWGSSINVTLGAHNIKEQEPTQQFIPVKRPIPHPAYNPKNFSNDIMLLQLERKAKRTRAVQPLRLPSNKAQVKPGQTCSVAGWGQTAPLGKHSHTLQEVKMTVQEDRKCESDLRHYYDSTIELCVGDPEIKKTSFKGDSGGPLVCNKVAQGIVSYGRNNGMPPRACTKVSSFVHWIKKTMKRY
Description: cDNAs for caspase-3, caspase-7, NuMA and PARP were used to drive the synthesis of [^35S]methionine-labeled proteins by coupled transcription/translation in rabbit reticulocyte lysates. For all purified substrates, cleavage reactions were performed in buffer consisting of 50 mM Hepes pH 7.4, 10% sucrose and 5 mM DTT in the presence of the granzyme B concentrations indicated in FIG. 1. After incubation at 37° C. for 15 min, reactions were terminated and samples were electrophoresed on 10% (DNA-PKcs, NuMA), 12% (PARP) or 15% (caspases 3 and 7) SDS-polyacrylamide gels. Radiolabeled proteins and their fragments were visualized by fluorography. Intact and cleaved DNA-PKcs were visualized by immunoblotting with monoclonal antibody 18-2 (Casciola-Rosen et al., 1995).
Catalytic constant (kcat/km) values were calculated essentially as described (Casciola-Rosen et al., 1996). Briefly, subsaturating substrate concentrations were used in each in vitro reaction, and product appearance was assumed to be a first order process. […] Several appropriate densitometry systems are available, e.g. PDI Discovery System, with Quantity One Software, Protein Databases, Inc., (Huntington Station, N.Y.). kcat/Km values were calculated by fitting the dose-response data to the first order rate equation: percent substrate cleavage=100*((1^-e-((kcat*[E]/Km)*time)). […]

[2] = tested on: SP1; assay: DNA-PKcs kinase assay (SP1 phosphorylation); type: biochemical; conditions: 12.5 nM granzyme B, 13.5 min, 37° C., then DNA, ATP
Description: Kinase assays were performed on intact DNA-PKcs or DNA-PKcs that had first been cleaved by granzyme B as follows. Reaction mixtures containing 10 mM Hepes pH 7.4, 2 mM MgCl2, 10 mM KCl, 2.7 mM DTT, and 50 ng DNA-PKcs in the absence or presence of 12.5 nM purified granzyme B, were incubated for 13.5 min at 37° C. Kinase reactions were subsequently initiated by adding 100 ng SP1 and 150 μM ATP containing 1.5 μCi [^32P]-ATP (3000 Ci/mmol), in the absence or presence of 10 μg/ml sheared herring sperm DNA (Promega). Samples were incubated at 37° C. for 10 min (well within the linear range of the assay, data not shown), before terminating the reactions by adding SDS gel buffer and boiling. After electrophoresing the samples on 8% SDS-PAGE, SP1 phosphorylation was detected by autoradiography, and quantitated by densitometry. Cleaved status of the kinase was confirmed in parallel by immunoblotting.

[3] = target: SP1; conditions: Casciola-Rosen et al., 1996; cited from earlier work

DNA-dependent protein kinase catalytic subunit [DNA-PKCS]
decrease of DNA-PKcs cleavage by granzyme B [1]: approximately 90%
kinase activity of DNA-PKcs after cleavage by granzyme B [2]: entirely abolished; also recorded: completely abrogates
kinase activity of DNA-PKcs after caspase-3 cleavage [3]: approximately 60 % of control levels
